Target: T1, human antithrombin β complexed with heparin (ATβH) (human, UniProt P01008 33-464, lacks glycosylation at Asn135 (β glyco-isoform); complexed with heparin; biotinylated on surface lysines for panning and ELISA)
T1 construct: mature; heparin is not a protein; also called human ATβH; hATβH
Experiment: panning and screening of a human antibody library against human ATβ in complex with heparin
From the text: A four-arm panning strategy was designed to discover Fabs specifically against ATβH from a human Fab library (Dyax Fab310). The library was first depleted with biotinylated heparin/Fondaparinux-bound ATα and biotinylated ATα and then was panned against heparin/Fondaparinux-bound ATβ and biotinylated ATβ on streptavidin beads, respectively. For each round of panning, the heparin-bound ATα (ATαH) was included in the binding buffer as a competitor. To keep hATβ in active conformation (heparin bound form), heparin was added to the wash buffer in all three rounds of panning. After panning, pooled clones were screened for hATβ and hATβH specific binding and counter-screened for hATα by ELISA. These clones were also examined for differential binding to rabbit ATβ over rabbit ATα. […] Positive hits (Fabs) were reformatted into IgG1, expressed in HEK293 cells and purified by protein-A column. These purified IgG1s were extensively tested in AT-depleted human plasma and hemA patient plasma for TGA assay (Thrombin Generation Assay) and dPT (diluted Prothrombin Time) assay to measure the clotting time.

T1 sequence (P01008 33-464, one chain of several): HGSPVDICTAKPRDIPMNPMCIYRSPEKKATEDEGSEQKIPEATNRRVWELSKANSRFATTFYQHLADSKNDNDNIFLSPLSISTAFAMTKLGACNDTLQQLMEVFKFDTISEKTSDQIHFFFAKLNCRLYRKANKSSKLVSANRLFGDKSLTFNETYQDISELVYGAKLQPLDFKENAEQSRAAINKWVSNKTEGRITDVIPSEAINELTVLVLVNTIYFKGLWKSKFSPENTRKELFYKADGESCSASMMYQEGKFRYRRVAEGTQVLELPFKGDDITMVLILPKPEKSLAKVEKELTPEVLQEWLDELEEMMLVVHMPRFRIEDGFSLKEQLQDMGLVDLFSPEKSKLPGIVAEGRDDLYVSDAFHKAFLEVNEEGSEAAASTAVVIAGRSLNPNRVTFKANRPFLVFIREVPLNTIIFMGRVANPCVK

B1: TPP2009 hIgG1 (antibody, V domains shown)
VH: EVQLLESGGGLVQPGGSLRLSCAASGFTFSAYRMGWVRQAPGKGLEWVSRIYSSGGRTRYADSVKGRFTISRDNSKNTLYLQMNSLRAEDTAVYYCAREKASDLSGSFSEALDYWGQGTLVTVSS
VL: AQSVLTQDPAVSVALGQTVRITCQGDSLRSYYASWYQQKPGQAPVLVIYGKNNRPSGIPDRFSGSSSGNTASLTITGAQAEDEADYYCNSRDSSGNHLVFGGGTKLTVLG
binding result: binds
